In assay [1] the target is syntaxin1 (stx1) and SNAP25 (S25) (Rattus norvegicus, UniProt P32851+P60881).
A further assay has as its system SNARE assemblies. The assay is classed as binding.

The text below walks through data of patent US20110038892A1 (priority 2009, published 2011).

No end group written: not given here. *: point of attachment. FITC = O=C1OC2(c3ccc(O)cc3Oc3cc(O)ccc32)c2ccc(NC(=S)*)cc21; Ahx = NCCCCCC(=O)O

Sequence of S1S23 (O00161 whole entry): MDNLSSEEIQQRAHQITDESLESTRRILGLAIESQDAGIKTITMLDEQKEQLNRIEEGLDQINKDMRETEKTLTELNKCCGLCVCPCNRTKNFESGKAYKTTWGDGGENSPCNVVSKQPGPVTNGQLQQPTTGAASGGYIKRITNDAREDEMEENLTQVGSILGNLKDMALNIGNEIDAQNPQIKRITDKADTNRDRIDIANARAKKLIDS
Sequence of S3S23 (O00161 whole entry): as above
Sequence of syntaxin1 (stx1) and SNAP25 (S25) (P60881 whole entry): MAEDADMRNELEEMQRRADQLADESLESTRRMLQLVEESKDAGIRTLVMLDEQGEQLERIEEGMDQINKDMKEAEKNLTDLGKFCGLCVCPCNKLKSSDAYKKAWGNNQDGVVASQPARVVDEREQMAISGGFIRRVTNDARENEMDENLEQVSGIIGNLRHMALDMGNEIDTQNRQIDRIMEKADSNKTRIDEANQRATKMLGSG
Sequence of syntaxin1 (stx1) and SNAP25 (S25) (P32851 whole entry): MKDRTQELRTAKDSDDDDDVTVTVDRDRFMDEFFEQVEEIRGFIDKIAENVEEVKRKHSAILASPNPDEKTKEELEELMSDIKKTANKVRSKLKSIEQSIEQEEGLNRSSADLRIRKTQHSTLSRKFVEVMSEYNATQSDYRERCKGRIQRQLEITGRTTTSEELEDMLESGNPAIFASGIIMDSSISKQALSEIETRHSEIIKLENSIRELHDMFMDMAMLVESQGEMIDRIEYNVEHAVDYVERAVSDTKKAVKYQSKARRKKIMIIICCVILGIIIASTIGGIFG

On to “{FITC-Ahx}-DKVLERDQKLSELDDRADALQAGASQFETSAAKLA [35 amino acid synaptobrevin SNARE motif]”, for which the “formation of SDS-resistant complex” value in assay [1] is “forms a complex but it ‘melts’ during gel-electrophoresis”.

Regarding synaptobrevin (VAMP2), the Tm is 65 °C in the assay with S1S23, 61 °C in the assay with S3S23, 59 °C in the assay with S3S25 and 71 °C with S1S25.

Turning to “{FITC-Ahx}-DIMRVNVDKVLERDQKLSELDDRADALQAGASQFETSAAKLA”, in assay [1], the “formation of SDS-resistant complex” value is reported as “still forms an SDS-resistant complex”.

In the case of “Ac-ERKAKYAKMEAEREVMRQGIRDKYGIKKGSGSGGIKVAV-NH2 [29 amino acid complexin 1 peptide]”, in the assay with SNARE assemblies, the “interaction with SNARE assemblies” value is “can interact with SNARE assemblies”.

B1: VAMP8 (protein)
VAMP8: EEASGSAGNDRVRNLQSEVEGVKNIMTQNVERILSRGENLDHLRNKTEDLEATSEHFKTTSQKVARKFWWKNVK
Regarding B1, the Tm turned out to be 57 °C in the assay with S1S23, 56 °C with S3S23, 48 °C with S3S25 and 57 °C in the assay with S1S25.

B2: VAMP7 (protein)
VAMP7: AILFAVVARGTTILAKHAWCGGNFLEVTEQILAKIPSENNKLTYSHGNYLFHYICQDRIVYLCITDDDFERSRAFSFLNEVKKRFQTTYGSRAQTALPYAMNSEFSSVLAAQLKHHSENKSLDKVMETQAQVDELKGIMVRNIDLVAQRGERLELLIDKTENLVDSSVTFKTTSRNLARAMCMKNIK
In the case of B2, the Tm in the assay with S1S23 came out at 57 °C; in the assay with S3S23, 50 °C; with S3S25 it was 45 °C; with S1S25, 56 °C.

B3: VAMP4 (protein)
VAMP4: PPKFKRHLNDDDVTGSVKSERRNLLEDDSDEEEDFFLRGPSGPRFGPRNDKIKHVQNQVDEVIDVMQENITKVIERGERLDELQDKSESLSDNATAFSNRSKQLRRQMWWRGCK
For the molecule B3, the Tm in the assay with S1S23 was 60 °C; with S3S23, 57 °C; with S3S25, 53 °C; in the assay with S1S25 it was 60 °C.

B4: VAMP5 (protein)
VAMP5: AGKELKQCQQQADEVTEIMLNNFDKVLERHGKLAELEQRSDQLLDMSSAFSKTTKTLAQQKRWENIRCR
Turning to B4, the Tm with S1S23 is 55 °C; with S3S23, 52 °C; in the assay with S3S25 it was 42 °C; with S1S25 it was 53 °C.
